From publication PMC11900225, “Deletions in Glial Fibrillary Acidic Protein Leading to Alterations in Intermediate Filament Assembly and Network Formation” (International Journal of Molecular Sciences, 2025) come the findings set out here.

Data set [1] deals with the molecule itself. The data set is described as follows: low-speed sedimentation assay of assembled filaments; assembly mixture centrifuged at 1000 x g for 5 min at room temperature; supernatant and pellet by SDS-PAGE and Coomassie; monitors filament aggregation.
The target of data set [2] is T1, Glial fibrillary acidic protein (GFAP), full-length wild type, human GFAPα (human, UniProt P14136-1 1-432).
T1 construct: Glial fibrillary acidic protein, major isoform GFAPα, human, full length, cDNA in pET23b; Expressed from pET23b; also called WT GFAP; WT
In words: high-speed sedimentation assay of assembled filaments; assembly mixture layered on a 0.85 M sucrose cushion in assembly buffer, 80,000 x g, 20 min, 20 °C; supernatant and pellet by SDS-PAGE and Coomassie; efficiency is the percent of total protein in the pellet. The following applies: both partners purified.

The target in data set [3] is T1, Glial fibrillary acidic protein (GFAP), …. In words: in vitro filament assembly with negative-stain transmission electron microscopy; 0.2 mg/mL GFAP dialysed stepwise out of 6 M urea into low-salt buffer, then into assembly buffer (10 mM Tris-HCl, 50 mM NaCl, 1 mM DTT, pH 7) at 34–36 °C for 12–16 h; stained with 1% uranyl acetate; mutants alone or coassembled with WT at stated proportions. The following applies: both partners purified.

Data set [4] concerns the molecule itself. The data set is described as follows: high-speed sedimentation assay of assembled filaments; assembly mixture layered on a 0.85 M sucrose cushion in assembly buffer, 80,000 x g, 20 min, 20 °C; supernatant and pellet by SDS-PAGE and Coomassie; efficiency is the percent of total protein in the pellet.

B1: CΔ207 GFAP (domain or fragment, human, UniProt P14136 1-225, looked up)
chain: MERRRITSAARRSYVSSGEMMVGGLAPGRRLGPGTRLSLARMPPPLPTRVDFSLAGALNAGFKETRASERAEMMELNDRFASYIEKVRFLEQQNKALAAELNQLRAKEPTKLADVYQAELRELRLRLDQLTANSARLEVERDNLAQDLATVRQKLQDETNLRLEAENNLAAYRQEADEATLARLDLERKIESLEEEIRFLRKIHEEEVRELQEQLARQQVHVELD
notes: Human GFAPα, the first 225 amino acids; N-terminal fragment produced by caspase-6 cleavage at 222VELD225; Expressed from pET23b; no tag named
For B1, the “percent in the pellet (low-speed sedimentation)” value (“percent in the pellet” for short) in data set [1] came to 91%.

B2: ΔEx5 GFAP (natural protein)
chain: not shown
notes: Human GFAPα with an in-frame deletion of 42 residues, amino acids 261-302 (skipping of exon 5, an Alexander disease splice site mutation); Expressed from pET23b; no tag named; also called ΔEx5 mutant; ΔEx5 deletion mutant
Turning to B2, the binding result in data set [2] was “binds”. Besides, in data set [1], the “percent in the pellet” value was found to be 69%.

B3: ΔEx4 GFAP (natural protein)
chain: not shown
notes: Expressed from pET23b; no tag named; also called ΔEx4 mutant
B3: the binding result in data set [3] and in data set [4] was “binds” each time.

B4: CΔ121 GFAP (domain or fragment, human, UniProt P14136 1-311, looked up)
chain: MERRRITSAARRSYVSSGEMMVGGLAPGRRLGPGTRLSLARMPPPLPTRVDFSLAGALNAGFKETRASERAEMMELNDRFASYIEKVRFLEQQNKALAAELNQLRAKEPTKLADVYQAELRELRLRLDQLTANSARLEVERDNLAQDLATVRQKLQDETNLRLEAENNLAAYRQEADEATLARLDLERKIESLEEEIRFLRKIHEEEVRELQEQLARQQVHVELDVAKPDLTAALKEIRTQYEAMASSNMHEAEEWYRSKFADLTDAAARNAELLRQAKHEANDYRRQLQSLTCDLESLRGTNESLERQMR
notes: Human GFAPα, the initial 311 residues; truncation caused by a nonsense Alexander disease mutation; Expressed from pET23b; no tag named
As for B4, the “percent in the pellet” value in data set [1] turned out to be 68%.

B5: CΔ92 GFAP (domain or fragment, human, UniProt P14136 1-340, looked up)
chain: MERRRITSAARRSYVSSGEMMVGGLAPGRRLGPGTRLSLARMPPPLPTRVDFSLAGALNAGFKETRASERAEMMELNDRFASYIEKVRFLEQQNKALAAELNQLRAKEPTKLADVYQAELRELRLRLDQLTANSARLEVERDNLAQDLATVRQKLQDETNLRLEAENNLAAYRQEADEATLARLDLERKIESLEEEIRFLRKIHEEEVRELQEQLARQQVHVELDVAKPDLTAALKEIRTQYEAMASSNMHEAEEWYRSKFADLTDAAARNAELLRQAKHEANDYRRQLQSLTCDLESLRGTNESLERQMREQEERHVREAASYQEALARLEEEGQSLKD
notes: Human GFAPα with 92 residues deleted from the C-terminus (CΔX is the number of residues deleted from the C-terminus); fragment potentially generated by calpain cleavage at 337SLKD340; Expressed from pET23b; no tag named
B5: the binding result in data set [4] is listed as “binds”.
